Data as given in patent publication US20260265386A1 (Chugai, published 2026).

B1: PDA0129 (antibody, human IgG1, kappa, V domains shown)
VH: QSVEESGGRLVTPGTPLTLTCTVSGFSLSSYDMSWVRQAPGKGLEYIGIISSSGSTYYASWAKGRFTISKTSTTVDLKITSPTTEDTATYFCARLGYVGYGYADIWGPGTLVTVSS
VL: IEMTQTPFSVSAAVGGTVTIKCQASEDIYSLLAWYQQKPGQPPKLLIYSASTLASGVPSRFKGSGYGTEFTLTISGVQAADAATYYCQGGYYSSSADNTFGGGTEVVVKR
B2: GY5 (antibody, human IgG1, kappa, V domains shown)
VH: QVQLQQSGPELVRPGVSVKISCKGSGHTFTDYALHWVRQSHVKSLEWIGVISSYNGITNYNQRFKGKATMTVDKSSSTAYLELARLTSEDSAIYYCSREEWDVFYYFDYWGQGTTLTVSS
VL: DIMLTQSPLSLPVSLGDQASISCRSSQGIVHSDGNTYLEWYLQKPGQSPKLLIYKVSNRFSGVPDRFSGSGSGTDFILKISRVEAEDLGVYYCFQGSHVPYTFGGGTKLEIKR
B3: PDA0044 (antibody, human IgG1, kappa, V domains shown)
VH: QSVEESGGRLVTPGTPLTLTCTASGFSLSGYYMSWVRQAPGKGLEWIGSISYGGSTYYASWAKGRFTISKTSTTVDLKITSPTTEDTATYFCAAGYTTNTAFDPWGPGTLVTVSS
VL: AFELTQTPSSVEAAVGGTVTIKCQASQSISSYLAWYQQKPGQPPKLLIYGASNLKSGVPSRFKGSGSGTQFTLTISDLEAADAATYYCQSYYYSSSSSYSFGGGTEVVVKR
B4: PDA0138 (antibody, human IgG1, kappa, V domains shown)
VH: QSVEESGGRLVTPGTPLTLTCTVSGFSLSSYHMCWVRQPPGKGLEYIGIISGGAITYYATWAKGRFTISITSSTTVDLKITSPTTEDTATYFCARGGGYGGGDYNFDLWGQGTLVTVSS
VL: AAVLTQTPSPVSAAVGATVSISCQSSQSVYGNSELAWYQQKPGQRPKLLIFEASKLASGVPSRFSGSGSGTQFSLAISDVQADDAATYYCAGGYSSTSDTTFGGGTEVVVKR
B5: PDA0107 (antibody, human IgG1, kappa, V domains shown)
VH: QSVEESGGRLVTPGTPLTLTCTVSGFSLSRYYMSWVRQAPGKGLEWIGYIYADSGSTWYASWAKGRFTISKTSTTVDLKMTSLTTEDTATYFCARRADHDGAFDLWGPGTLVTVSS
VL: AAVLTQTPSPVSAAVGGTVSISCQSSQSVYGKNELSWYQQKPGQPPKLLIYYASTLASGVPSRFSGSGSGTQFALTISGVQADDAATYYCAGGYSSSVDTTFGGGTEVVVKR
B6: GY14 (antibody, human IgG1, kappa, V domains shown)
VH: QVQLQQSGAELVRPGASVKLSCKALGDTFTDYEIHWVKQTPVHGLEWIGVIHPGSGGTVYNQKFKGKATLTADKYSSTAYMELSSLTSEDSAVYYCTREGMNTDWYFDVWGAGTTVTVSS
VL: DILMTQDELSLPVSLGDQASISCRSSQTIVHTNGNTYLEWYLQKPGQSPKLLIYKVSNRFSGVPDRFSGSGSGTYFTLKISRLEAEDLGVYYCFQGSHVPYTFGGGTKLEMKR
B7: PDC0037 (antibody, human IgG1, kappa, V domains shown)
VH: QSVEESGGRLVTPGTPLTLTCTVSGFSLSYYAMIWVRQAPGKGLEWIGFINSYGKTYYANWAKGRFTISKTSTTVDLKMTSLTSEDTATYFCARERDNYHFNLWGQGTLVTVSS
VL: AQVLTQTPSPVSAAVGGTVTISCQSSESVYNNNWLAWYQQKPGQPPKFLIYDASTLASGVPSRFSGSGSGTQFTLTISGVQADDAATYYCQGTYYSSDWYFVFGGGTEVVVKR
B8: PDC0053 (antibody, human IgG1, kappa, V domains shown)
VH: QQHLVESGGGLVKPGASLTLTCKASGFYFSGYYYMSWVRQAPGKGLEWIASIYSGGSGNTYYASWAKGRFTISKTSSTTVTLQMTSLTAADTATYFCARGADYTHDYPADAAAWSFDPWGPGTLVTVSS
VL: DIVMTQTPASVEAAVGGIVTIKCQASQSISSYLAWYQQKPGQPPNLLIYRASTLASGVPSRFKGSGSGTQFTLTISDLEAADAATYYCQGYHFSSTSSNYGNAFGGGTEVVVKR
B9: PDE0171 (antibody, human IgG1, kappa, V domains shown)
VH: QSLEESGGGLVKPGASLTLTCTASGFSFSGSYYMCWVRQAPGKGLECIACIYAGSSGATYYASWAKGRFTVSKTSSTTVTLQMTSLTAADTATYFCARHTNGIGLGLWGPGTLVTVSS
VL: DIVMTQTPASVSAAVGGTVSINCQASEDIENFLAWYQQKPGQPPSLLIYETSKLASGVPSRFSGSGSGTEFTLTISDLEAADAATYYCQSYDWSDSSTYDNTFGGGTEVVVKR

Biological target: T1, human PD1 on NFAT-luc2/PD1 Jurkat Cell line (Promega, #CS187102) (human, UniProt Q15116 25-288)
T1 construct: whole, on cells; also called PD1+Jurkat cells; human PD1-expressing cell line
T1 sequence (Q15116 25-288): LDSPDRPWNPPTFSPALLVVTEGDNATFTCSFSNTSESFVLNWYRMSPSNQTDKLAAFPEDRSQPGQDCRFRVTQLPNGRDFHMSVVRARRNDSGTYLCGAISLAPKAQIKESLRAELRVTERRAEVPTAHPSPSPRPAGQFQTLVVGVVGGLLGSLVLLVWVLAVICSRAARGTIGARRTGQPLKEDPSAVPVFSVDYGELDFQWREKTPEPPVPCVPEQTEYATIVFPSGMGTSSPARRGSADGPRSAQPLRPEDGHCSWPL
Experiment: flow cytometry on NFAT-luc2/PD1 Jurkat cells, Ab 10 micro g/mL, detected with Goat F(ab')2 anti-Human IgG-PE
Text: Unbound Abs were removed by washing twice with staining buffer.

Binder	binding result
B1	binds
B2	binds
B3	binds
B4	binds
B5	binds
B6	binds
B7	binds
B8	binds
B9	binds
